Data from US20040191240A1, “Composition and method for nerve regeneration” (priority 2003, published 2004).

T1: RhoA complexed with Rho GDI (Bos taurus, UniProt P19803)
T1 construct: GST (N, cleaved yes); made in house; host or cells: yeast (RhoA, from membranes); E. coli (Rho GDI, pGEX)
T1 sequence (P19803 1-204): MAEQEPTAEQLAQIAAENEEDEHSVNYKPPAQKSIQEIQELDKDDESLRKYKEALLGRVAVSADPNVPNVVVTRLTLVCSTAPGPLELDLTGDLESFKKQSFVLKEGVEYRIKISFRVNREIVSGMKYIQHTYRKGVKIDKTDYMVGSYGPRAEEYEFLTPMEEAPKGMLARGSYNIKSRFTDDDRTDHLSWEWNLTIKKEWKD

B1: p75 in which alanine was replaced with valine at amino acid 423: p75 positions 273-427 of SEQ ID NO. 4 with alanine replaced with valine at amino acid 423 (protein)
chain: KRWNSCKQNKQGANSRPVNQTPPPEGEKLHSDSGISVDSQSLHDQQPHTQTASGQALKGDGGLYSSLPPAKREEVEKLLNGSAGDTWRHLAGELGYQPEHIDSFTHEACPVRALLASWATQDSATLDALLAALRRIQRADLVESLCSESTVTSPV
modifications: Homo sapien
B2: p75 ICD: GST-fused intracellular domain (ICD) of p75 (protein)
chain: KRWNSCKQNKQGANSRPVNQTPPPEGEKLHSDSGISVDSQSLHDQQTHTQTASGQALKGDGNLYSSLPLTKREEVEKLLNGDTWRHLAGELGYQPEHIDSFTHEACPVRALLASWGAQDSATLDALLAALRRIQRADIVESLCSESTATSPV
modifications: left off: a dimerising Fc or GST

Columns and labels:
male Wistar rats = assay: Spinal cord injury (dorsal half dissected, ninth thoracic vertebra), agent pumped to the injured site; type: in vivo, rat; settings: species not stated
Procedure: 200 g male Wistar rats were used. After the ninth thoracic vertebrae laminectomy was performed, the dorsal half of the spinal cord was dissected. A continuous osmotic pump was used to continuously administer either TAT(PTD domain)-fused Pep5 (TAT-[…]) (SEQ ID NO. 2) or TAT(PTD domain)-fused control peptide (TAT-[…]) (SEQ ID NO. 15) to the injured site for 6 weeks ([…]). In this case, the tip of a tube connected to the pump was left in the medullary space. After spinal cord injury, the functional recovery was assessed using the BBB score. The animals were observed on day 7, 14, 21, 28, 35, and 42 after injury. These experiments were carried out using techniques described in Fournier A. E., Takizawa, B. T., Strittmatter, S. M., J. Neurosci. 2003, 23, 1416-1423.
200 g male Wistar rats were used. After the ninth thoracic vertebrae laminectomy was performed, the dorsal half of the spinal cord was dissected. A continuous osmotic pump was used to continuously administer either TAT-fused Pep5 or TAT (PTD domain)-fused control peptide to the injured site.

[1] = biological target: T1, RhoA complexed with Rho GDI; assay: In vitro nucleotide exchange assay; type: biochemical; settings: high Mg2+; 50 nM complex, 90 nM GST-Dbl
Procedure: Lipid-modified RhoA was purified from yeast membranes as described (Forget, M. A., Desrosiers, R. R., Gingras, D. & Beliveau, R., Biochem. J. 361, 243-54(2002)). [^3H]GDP- or GDP-RhoA complexed with Rho GDI was obtained by first incubating GDP-RhoA with or without [^3H]GDP, followed by incubation with Rho GDI for 30 min, as described previously (Takahashi, K. et al., J. Biol. Chem. 272, 23371-23375 (1997)). The sample, subjected to gel filtration, was equilibrated with 20 mM Tris-HCl (pH 7.5) containing 5 mM MgCl2, 1 mM dithiothreitol and 0.1% CHAPS. The GDP dissociation and GTP binding assays were carried out by the filter binding method as described previously (Hart, M. J., Eva, A., Evans, T., Aaronson, S. A. & Cerione, R. A., Nature 354, 311-314 (1991)). In the [^3H]GDP dissociation assay, 50 nM of the complex was incubated for 20 min with various concentrations of GST-fused proteins in a reaction mixture (50 μl) containing 30 mM Tris-HCl (pH 7.5), 5 mM or 0.5 μM MgCl2, 1 (for low Mg) or 10 (for high Mg) mM EDTA, 0.1 mM GTP, 1 mM dithiothreitol, 0.12% CHAPS and 0.2mg/ml bovine serum albumin. In the [^35S] GTPγS binding assay, the complex was incubated as described above except that 1 μM [^35S] GTPγS was used instead of 0.1 mM GTP. At the indicated time, an aliquot of the reaction sample was removed, and passed through nitrocellulose filters (IPVH 000, Millipore). […]

| Molecule | nerve regeneration, similar experiments with modified amino acids (Example 2-8) (male Wistar rats) | Dbl stimulated dissociation of GDP from GDP-RhoA complexed with Rho GDI [1] |
| --- | --- | --- |
| B1 | nerve regeneration was similarly observed |  |
| B2 |  | showed the inhibitory effect to the same extent as p75 HD |
